Reference: patent US20230099200A1, “RADIOLABELED PEPTIDES FOR NON-INVASIVE DIAGNOSIS AND TREATMENT OF CXCR4 EXPRESSING TUMORS” (ISTITUTO NAZIONALE TUMORI IRCCS - FONDAZIONE G. PASCALE, priority 2019, published 2023)
Where two headings read alike, the source gives them in different places. Each block holds one molecule with its values, some of them ahead of it. Where a SMILES comes first, the peptide text is derived from it. Bridges are numbered along the chain shown (N, C = ends). [ ]: non-standard residue; d: D form. The star is where a group is joined. AMBHA = 6-(4-(aminomethyl)benzamido)hexanoic acid linker, NCc1ccc(C(=O)NCCCCCC(=O)*)cc1; DOTA = O=C(O)CN1CCN(CC(=O)O)CCN(CC(=O)*)CCN(CC(=O)O)CC1; NOTA = O=C(O)CN1CCN(CC(=O)O)CCN(CC(=O)*)CC1; 2Nal = N[C@@H](Cc1ccc2ccccc2c1)C(=O)O; Fmoc = O=C(OCC1c2ccccc2-c2ccccc21)*; Pen = CC(C)(S)[C@H](N)C(=O)O; 4Amb = NCc1ccc(C(=O)O)cc1; Ahx = NCCCCCC(=O)O

Tests used:
CXCR4 [1] = target: T1, CXCR4 (Homo sapiens, UniProt P61073); assay: competitive binding with [^125I]CXCL12 as radioligand on CXCR4-expressing CCRF-CEM cells; set-up: using CXCR4-expressing CCRF-CEM cells, human T lymphoblastic leukemia cells CXCR4 expressing; endogenous in cells; host or cells: CCRF-CEM (human T-cell leukemia), whole cells; details: [^125I]CXCL12 radioligand, means ±SD, read-out: hCXCR4 binding affinity IC50
T1 sequence (P61073 whole entry): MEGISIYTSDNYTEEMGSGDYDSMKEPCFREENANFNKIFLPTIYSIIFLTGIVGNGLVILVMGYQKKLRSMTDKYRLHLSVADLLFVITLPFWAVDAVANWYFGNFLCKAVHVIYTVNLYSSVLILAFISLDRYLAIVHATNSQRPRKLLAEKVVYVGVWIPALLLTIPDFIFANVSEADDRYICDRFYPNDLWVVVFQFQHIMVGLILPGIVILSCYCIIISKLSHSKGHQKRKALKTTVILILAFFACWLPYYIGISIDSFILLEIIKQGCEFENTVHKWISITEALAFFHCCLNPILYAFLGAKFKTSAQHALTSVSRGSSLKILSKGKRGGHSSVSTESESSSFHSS
Method: Specifically, according to the present invention, DOTA and NOTA-AMBHA-R54 were synthesized by combining solid and solution-phase peptide synthesis. Binding affinities (IC50) were determined using CXCR4-expressing CCRF-CEM cells, human T lymphoblastic leukemia cells CXCR4 expressing, with [^125I]CXCL12 as radioligand. Chinese hamster ovary (CHO) and CHO cells transduced with human CXCR4 (CHO-hCXCR4) grown in complete medium supplemented with 1 mg/mL G418 (a kind gift of Dr. David McDermott (NIAID, NIH, Bethesda, Md.).
Binding affinities to hCXCR4 were assessed with CCRF-CEM cells (1·10^6 cells/sample) in binding buffer (PBS containing 50 mM HEPES, 1 mM CaCl2, 5 mM MgCl2, 0.5% BSA, and 0.3 mM NaN3) and [^125I]CXCL12 (Perkin-Elmer, 2200 Ci/mmol) as radioligand. Cells were incubated with 100.000 cpm of the respective radioligand (approx. 0.1 nM) plus increasing concentrations (10^−11 to 10^−5 M) of the respective peptide of interest (n=3 per concentration, total sample volume 250 μL). After incubation at 4° C. for 60 min (CCRF-CEM cells) at room temperature (RT), samples were centrifuged (5 min, 450 g, Megafuge 1.0, Heraeus Thermo Scientific), the supernatant was carefully removed and pooled with the supernatants of two subsequently performed washing steps. […]

CXCR4 [2] = target: T1, CXCR4; details: competitive binding assay using anti-CXCR4 mAb 12G5; read-out: CXCR4 affinity IC50; cited from earlier work
in vivo = assay: in vivo; set-up: species or system mice; details: female, athymic nude, mouse, iv, total radioactivity
Description: (§1) Female athymic nude mice (6 weeks old from Envigo Laboratories, Indianapolis, Ind., USA) were subcutaneously (s.c.) injected with 10^7 CHO (right flank) and CHO-hCXCR4 (left flank) or CHO-hCXCR4 cells alone (right flank). Once tumors became palpable (100=^3 [volume=0.5×long diameter×(short diameter)^2]), approximately 15-21 days post injection (p.i.), the animals were used for the experiments. Tumor-bearing CHO/CHO-hCXCR4 mice were i.v. injected with 10-15 MBq of the respective radiotracer in 100 μL of PBS. At 45 min p.i., mice were anaesthetized with Avertin and images were acquired using a Discovery 600 PET/TC scanner (GE healthcare) in 3D mode with measured attenuation correction (1 bed position, 6 min scanning time). Data were decay-corrected to the time of tracer injection. The reconstructed images including PET, CT and fused PET/TC images, were generated on the advantage workstation version (AW4.6 software, GE healthcare). Tissue activity (e.g. tumor, lung, liver, kidney) was quantified considering the volume of a region of interest (ROI) to determine maximum standardized uptake values (SUVmax). Non-specific tracer accumulation was investigated by co-injection of 8 mg/kg unlabeled peptide […]. CHO and CHO-hCXCR4 tumors were microscopically analyzed (H&E) and CXCR4 expression was evaluated through immunohistochemistry (IHC) (mab172, clone 44716, diluition 1:[…]&D system). The percentage of positive cells was evaluated in at least 5 areas (HPF 200× magnification) (Zeiss AxioScope light microscope). Statistical analysis was performed using the MedCalc 9.3.7.0 and Excel software. Unpaired Student t test was used for statistical analysis of ex vivo biodistribution and PET/TC images. The Spearman's correlation was used to measure the degree of association between SUV(max) and % CXCR4 IHC staining.

CHO-hCXCR4 xenografts = assay: in vivo; set-up: species or system mice; details: mouse; for tumor accumulation upon co-injection of unlabeled competitor (R54): 8 mg/kg
Description: as §1

CHO-hCXCR4 tumor = system: CHO-hCXCR4 tumor; set-up: species or system mice; details: mouse, in vivo
Method: Female athymic nude mice (6 weeks old from Envigo Laboratories, Indianapolis, Ind., USA) were subcutaneously (s.c.) injected with 10^7 CHO (right flank) and CHO-hCXCR4 (left flank) or CHO-hCXCR4 cells alone (right flank). Once tumors became palpable (100=^3 [volume=0.5×long diameter×(short diameter)^2]), approximately 15-21 days post injection (p.i.), the animals were used for the experiments. 10-15 MBq of the respective ^68Ga-labeled peptide in 100 μL of PBS were injected into the tail vein of nude mice bearing CHO-hCXCR4 tumor (groups of n=3-5). For competition studies, 8 mg/kg of unlabeled […], were co-injected with the radioligands. At 45 min p.i., blood was collected from the retro-orbital plexus (100 μl) and mice were sacrificed and the tissues and organs of interest were dissected, weighed, and counted for radioactivity in a γ-counter. Biodistribution data are given as percent injected dose per gram tissue, % ID/g (means±SD). The biodistribution of [^68Ga]DOTA-AMBHA-R54 and [^68Ga]NOTA-AMBHA-R54 was investigated in CHO-hCXCR4 bearing […] mice (45 min p.i.). […] Data are given in % ID/g and are means±SD.

[3] = target: T2, human CXCR4 (chemokine receptor 4) on CCRF-CEM cells (human, UniProt P61073 1-352); assay: displacement of [125I]CXCL12 from CXCR4-expressing CCRF-CEM cells, gamma counting
T2 construct: whole, on cells; also called hCXCR4
T2 sequence (P61073 whole entry): as above
Method: Cells were incubated with 100.000 cpm of the respective radioligand (approx. 0.1 nM) plus increasing concentrations (10⁻¹¹ to 10⁻⁵ M) of the respective peptide of interest (n=3 per concentration, total sample volume 250 μL). After incubation at 4° C. for 60 min (CCRF-CEM cells) at room temperature (RT), samples were centrifuged (5 min, 450 g, Megafuge 1.0, Heraeus Thermo Scientific), the supernatant was carefully removed and pooled with the supernatants of two subsequently performed washing steps. Then, the amount of free (pooled supernatants) and bound radioligand (cell pellet) was quantified using a γ-counter and expressed in percent of total added activity. The half maximal inhibitory concentration (IC₅₀) values were calculated using GraphPad Prism software (GraphPad Software, Inc., California).
To assess the influence of modifications and chelator conjugation on R54, the CXCR4 affinity of Fmoc-AMBHA-R54 (see above the structure), NOTA-AMBHA-R54 and DOTA-AMBHA-R54 peptides as well as unmodified R54 were tested in competitive binding with [¹²⁵I]CXCL12 as radioligand on CXCR4-expressing CCRF-CEM cells. Each experiment was performed in triplicate, and results are means ±SD from a minimum of three separate experiments.

IC50 (CXCR4 [1]): 20 ± 2 nM
Molecule: CC(=O)N[C@@H](CCCNC(=N)N)C(=O)N[C@@H](C)C(=O)N[C@@H]1CSSC(C)(C)[C@@H](C(=O)O)NC(=O)[C@H](Cc2c[nH]cn2)NC(=O)[C@H](Cc2ccc3ccccc3c2)NC(=O)[C@H](CCCNC(=N)N)NC1=O [Peptide R54, Ac-Arg-Ala-[DCys-Arg-Nal(2′)-His-Pen]COOH] (Ac-RA[dC]R[2Nal]H[Pen]-OH; disulfide 3-7)

Molecule: CC(=O)N[C@@H](CCCNC(=N)N)C(=O)N[C@@H](C)C(=O)N[C@@H]1CSSC(C)(C)[C@@H](C(=O)O)NC(=O)[C@H](Cc2cnc[nH]2)NC(=O)[C@H](Cc2ccc3ccccc3c2)NC(=O)[C@H](CCCNC(=N)N)NC1=O [Peptide R54, Ac-Arg-Ala-[DCys-Arg-Nal(2′)-His-Pen]COOH] (Ac-RA[dC]R[2Nal]H[Pen]-OH; disulfide 3-7)
IC50 (CXCR4 [2]): 1.5 ± 0.5 nM

Molecule: C[C@H](NC(=O)[C@H](CCCNC(=N)N)NC(=O)CCCCCNC(=O)c1ccc(CNC(=O)CN2CCN(CC(=O)O)CCN(CC(=O)O)CCN(CC(=O)O)CC2)cc1)C(=O)N[C@@H]1CSSC(C)(C)[C@@H](C(=O)O)NC(=O)[C@H](Cc2c[nH]cn2)NC(=O)[C@H](Cc2ccc3ccccc3c2)NC(=O)[C@H](CCCNC(=N)N)NC1=O [[^68Ga]DOTA-AMBHA-R54, metal not drawn] ({DOTA-4Amb-Ahx}-RA[dC]R[2Nal]H[Pen]-OH; disulfide 3-7)
SUV at 0.75 h (in vivo): 2.02 ± 0.14 SUV | maximum standardized uptake value (SUVmax) (CHO-hCXCR4 xenografts): 2.02 ± 0.14 g/mL | tumor accumulation upon co-injection of unlabeled competitor (R54) (CHO-hCXCR4 xenografts): reduced to background levels | tumor/non-tumor ratios (CHO-hCXCR4 tumor): high tumor/non-tumor ratios

Molecule: C[C@H](NC(=O)[C@H](CCCNC(=N)N)NC(=O)CCCCCNC(=O)c1ccc(CNC(=O)CN2CCN(CC(=O)O)CCN(CC(=O)O)CC2)cc1)C(=O)N[C@@H]1CSSC(C)(C)[C@@H](C(=O)O)NC(=O)[C@H](Cc2c[nH]cn2)NC(=O)[C@H](Cc2ccc3ccccc3c2)NC(=O)[C@H](CCCNC(=N)N)NC1=O [[^68Ga]NOTA-AMBHA-R54, metal not drawn] ({NOTA-4Amb-Ahx}-RA[dC]R[2Nal]H[Pen]-OH; disulfide 3-7)
SUV at 0.75 h (in vivo): 19.6 ± 2 SUV | maximum standardized uptake value (SUVmax) (CHO-hCXCR4 xenografts): 19.6 ± 2.00 g/mL | tumor accumulation upon co-injection of unlabeled competitor (R54) (CHO-hCXCR4 xenografts): reduced to background levels | excretion route (CHO-hCXCR4 tumor): exclusive renal excretion | tumor/non-tumor ratios (CHO-hCXCR4 tumor): high tumor/non-tumor ratios

IC50 [3]: 107 nM
Molecule: {DOTA-AMBHA}-RA[dC]R[2Nal]H[Pen]-OH (disulfide 3-7, also called DOTA-Ahx-R54; DOTA-R54) [DOTA-AMBHA-R54]

IC50 [3]: 36 nM
Molecule: {NOTA-AMBHA}-RA[dC]R[2Nal]H[Pen]-OH (disulfide 3-7, also called NOTA-Ahx-R54; NOTA-R54) [NOTA-AMBHA-R54]

IC50 [3]: 38.5 nM
Molecule: {Fmoc-AMBHA}-RA[dC]R[2Nal]H[Pen]-OH (disulfide 3-7) [Fmoc-AMBHA-R54]
